# Laboratory results reported in article PMC4417118 (Genome Research, 2015).
# Biological target: the molecule itself
# Experiment: native gel or EMSA
row,Protein,stoichiometry N
1,His-CRMP1-D408V (natural protein) not shown,4
2,"His-CRMP1 (collapsin response mediator protein 1, wild type) (natural protein) not shown",4
